Test in all cases: holdup assay
Common to all, as to set-up: key: below the threshold = too weak to quantify, mostly under pKd 3.1 to 4

The target in assay [1] is T1, TIAM2, Q8IVF5.
T1 sequence (Q8IVF5 885-986, limits assumed, looked up): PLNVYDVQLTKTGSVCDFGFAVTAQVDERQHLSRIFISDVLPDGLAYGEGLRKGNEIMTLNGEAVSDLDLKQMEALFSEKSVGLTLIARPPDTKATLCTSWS

Assay [2] has as its target T2, TJP3_3, O95049.
T2 sequence (O95049 375-456, limits assumed, looked up): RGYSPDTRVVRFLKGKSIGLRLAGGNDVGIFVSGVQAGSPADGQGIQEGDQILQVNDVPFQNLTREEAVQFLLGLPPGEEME

Assay [3] addresses T3, DFNB31_1, Q9P202.
T3 sequence (Q9P202 135-233, limits assumed, looked up): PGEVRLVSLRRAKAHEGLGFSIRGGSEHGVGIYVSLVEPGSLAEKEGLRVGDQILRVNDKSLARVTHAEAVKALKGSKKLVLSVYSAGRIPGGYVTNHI

Assay [4] has as its target MAGI2_2, Q86UL8.
In assay [5] the target is PDZRN4_1, Q6ZMN7.
Assay [6] addresses HTRA1, Q92743.
In assay [7] the target is T4, GRIP1_5, Q9Y3R0.
T4 sequence (Q9Y3R0 568-668, limits assumed, looked up): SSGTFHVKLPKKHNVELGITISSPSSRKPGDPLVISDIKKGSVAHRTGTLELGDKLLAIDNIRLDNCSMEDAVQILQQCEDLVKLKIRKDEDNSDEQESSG

Assay [8] addresses T5, HTRA4, P83105.
T5 sequence (P83105 378-476, limits assumed, looked up): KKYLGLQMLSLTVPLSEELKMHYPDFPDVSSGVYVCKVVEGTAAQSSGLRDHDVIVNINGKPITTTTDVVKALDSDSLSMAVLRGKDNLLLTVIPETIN

For assay [9], the target named is T6, TX1BP3, O14907.
T6 sequence (O14907 10-122, limits assumed, looked up): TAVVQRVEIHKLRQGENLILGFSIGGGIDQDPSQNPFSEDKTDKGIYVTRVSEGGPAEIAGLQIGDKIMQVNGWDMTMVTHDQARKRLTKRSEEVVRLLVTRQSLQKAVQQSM

Assay [10] deals with T7, LIN7C, Q9NUP9.
T7 sequence (Q9NUP9 88-185, limits assumed, looked up): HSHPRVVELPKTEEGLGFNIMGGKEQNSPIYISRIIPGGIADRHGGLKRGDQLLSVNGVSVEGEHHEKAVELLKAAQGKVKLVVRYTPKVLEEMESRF

Assay [11] has as its target T8, DFNB31_3, Q9P202.
T8 sequence (Q9P202 811-907, limits assumed, looked up): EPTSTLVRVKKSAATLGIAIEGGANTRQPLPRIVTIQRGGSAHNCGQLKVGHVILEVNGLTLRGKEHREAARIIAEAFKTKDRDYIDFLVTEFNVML

For assay [12], the target named is T9, CARD11, Q9BXL7.
T9 sequence (Q9BXL7 662-765, limits assumed, looked up): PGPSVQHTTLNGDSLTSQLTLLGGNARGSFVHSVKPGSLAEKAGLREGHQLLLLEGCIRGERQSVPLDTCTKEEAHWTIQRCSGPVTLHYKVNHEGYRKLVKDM

Assay [13] addresses LIMK2, P53671.
The target of assay [14] is T10, RAPGEF6, Q8TEU7.
T10 sequence (Q8TEU7 525-625, limits assumed, looked up): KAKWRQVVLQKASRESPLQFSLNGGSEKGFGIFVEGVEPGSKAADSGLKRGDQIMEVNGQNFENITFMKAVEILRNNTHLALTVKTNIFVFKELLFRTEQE

In assay [15] the target is MAGI2_3, Q86UL8.
For assay [16], the target named is T11, FRMPD1, Q5SYB0.
T11 sequence (Q5SYB0 52-145, limits assumed, looked up): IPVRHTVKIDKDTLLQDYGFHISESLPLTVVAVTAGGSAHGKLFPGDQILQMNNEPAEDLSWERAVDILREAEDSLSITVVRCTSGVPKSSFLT

In assay [17] the target is T12, SHANK1, Q9Y566.
T12 sequence (Q9Y566 658-767, limits assumed, looked up): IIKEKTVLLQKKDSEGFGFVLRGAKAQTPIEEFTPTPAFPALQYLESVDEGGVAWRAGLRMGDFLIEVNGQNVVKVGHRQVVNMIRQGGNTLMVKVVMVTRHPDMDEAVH

The target in assay [18] is NHERF4_4, Q86UT5.
In assay [19] the target is T13, DFNB31_2, Q9P202.
T13 sequence (Q9P202 274-371, limits assumed, looked up): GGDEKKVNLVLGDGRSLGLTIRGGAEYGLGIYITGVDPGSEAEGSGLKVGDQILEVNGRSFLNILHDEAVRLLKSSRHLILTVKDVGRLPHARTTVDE

Assay [20] concerns the target DLG1_2, Q12959.
For assay [21], the target named is T14, APBA1_1, Q02410.
T14 sequence (Q02410 651-752, limits assumed, looked up): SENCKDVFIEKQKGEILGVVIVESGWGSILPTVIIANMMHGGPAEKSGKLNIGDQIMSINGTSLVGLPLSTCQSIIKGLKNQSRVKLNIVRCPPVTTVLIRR

Assay [22] concerns the target T15, DVL3, Q92997.
T15 sequence (Q92997 244-331, limits assumed, looked up): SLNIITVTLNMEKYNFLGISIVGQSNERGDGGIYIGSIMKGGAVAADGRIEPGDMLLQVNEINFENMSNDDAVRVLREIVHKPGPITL

Setting [23] is: plain residues with an end cap or a label only (N-terminal biotin on a linker: (peg)3).
Setting [24] is: plain residues with an end cap or a label only (N-terminal biotin on a linker: ado-ado).
Setting [25] is: plain residues with an end cap or a label only (N-terminal biotin on a linker: ahx).

Sequence of PDZRN4_1, Q6ZMN7 (Q6ZMN7 213-318): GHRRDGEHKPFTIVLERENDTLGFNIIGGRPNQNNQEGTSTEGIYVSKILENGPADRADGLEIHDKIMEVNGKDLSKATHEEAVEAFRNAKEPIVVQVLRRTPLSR
Sequence of NHERF4_4, Q86UT5 (Q86UT5 464-550): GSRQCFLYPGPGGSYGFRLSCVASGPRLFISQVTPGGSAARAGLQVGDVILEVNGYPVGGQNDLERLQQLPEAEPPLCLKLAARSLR
Sequence of LIMK2, P53671 (P53671 143-248): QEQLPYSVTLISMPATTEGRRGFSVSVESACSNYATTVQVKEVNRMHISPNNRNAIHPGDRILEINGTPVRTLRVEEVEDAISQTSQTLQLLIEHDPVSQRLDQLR
Sequence of HTRA1, Q92743 (Q92743 360-477): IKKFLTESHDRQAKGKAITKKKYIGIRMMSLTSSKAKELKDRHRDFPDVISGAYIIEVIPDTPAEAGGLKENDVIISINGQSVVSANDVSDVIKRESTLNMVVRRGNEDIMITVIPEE
Sequence of MAGI2_3, Q86UL8 (Q86UL8 600-682): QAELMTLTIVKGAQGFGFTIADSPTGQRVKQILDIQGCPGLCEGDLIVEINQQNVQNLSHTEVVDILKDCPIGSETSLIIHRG
Sequence of DLG1_2, Q12959 (Q12959 314-412): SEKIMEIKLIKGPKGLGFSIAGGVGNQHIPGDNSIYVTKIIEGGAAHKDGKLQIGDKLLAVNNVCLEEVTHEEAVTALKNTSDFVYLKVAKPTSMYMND
Sequence of MAGI2_2, Q86UL8 (Q86UL8 410-522): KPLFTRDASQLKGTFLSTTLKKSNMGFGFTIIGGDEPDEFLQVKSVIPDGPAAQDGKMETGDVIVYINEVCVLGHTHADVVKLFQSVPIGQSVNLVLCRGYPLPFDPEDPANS

Usually pKd stands for −log10 of the Kd, conventionally taken in molar units. On to RRRRSQSRESQC [HBV-HBc, P03193], for which the pKd was 3.86 in [1] (setting [23]); “below the threshold” in assay [2] (setting [23]); 3.92 in assay [3] (setting [23]); 4.4 in assay [4] (setting [23]); “below the threshold” in assay [5] (setting [23]); “below the threshold” in assay [6] (setting [23]). Moreover, the pKd result is “below the threshold” in [7] (setting [23]); “below the threshold” in [8] (setting [23]); 4.14 in assay [9] (setting [23]); 3.66 in [10] (setting [23]); “below the threshold” in assay [11] (setting [23]); “below the threshold” in assay [12] (setting [23]). Further, the pKd entry in assay [13] (setting [23]), in [14] (setting [23]), in [15] (setting [23]), in assay [16] (setting [23]), in assay [17] (setting [23]) and in [18] (setting [23]) was “below the threshold” in each case. The pKd entry was “below the threshold” in assay [19] (setting [23]), 4.58 in assay [20] (setting [23]), “below the threshold” in assay [21] (setting [23]) and “below the threshold” in [22] (setting [23]).
Turning to NTANRRTTPV [CACNG2, Q9Y698], the pKd entry in assay [1] (setting [24]) is “below the threshold”; in assay [2] (setting [24]) it was “below the threshold”; in [3] (setting [24]), 3.76; in assay [4] (setting [24]) it was 4.98; in [5] (setting [24]), “below the threshold”; in assay [6] (setting [24]) it was “below the threshold”. Further, the pKd entry in assay [7] (setting [24]) is “below the threshold”; in assay [8] (setting [24]), “below the threshold”; in assay [9] (setting [24]), 4.76; in [10] (setting [24]), “below the threshold”; in [11] (setting [24]), “below the threshold”; in assay [12] (setting [24]) it was “below the threshold”. For the same molecule, the pKd entry in assay [13] (setting [24]), in assay [14] (setting [24]), in assay [15] (setting [24]), in assay [16] (setting [24]), in assay [17] (setting [24]) and in assay [18] (setting [24]) was “below the threshold” each time. Further, the pKd result in assay [19] (setting [24]) was “below the threshold”; in [20] (setting [24]) it was 5.01; in assay [21] (setting [24]) it was “below the threshold”; in assay [22] (setting [24]), “below the threshold”.
Consider AEASVACSLC [PTGIR, P43119], for which the negative-log Kd (pKd) is 3.75 in assay [1] (setting [24]); “below the threshold” in assay [2] (setting [24]); “below the threshold” in assay [3] (setting [24]); “below the threshold” in assay [4] (setting [24]); “below the threshold” in assay [5] (setting [24]); 3.93 in [6] (setting [24]). For the same molecule, the pKd entry in [7] (setting [24]) was “below the threshold”; in assay [8] (setting [24]), “below the threshold”; in assay [9] (setting [24]) it was “below the threshold”; in [10] (setting [24]), “below the threshold”; in [11] (setting [24]) it was 3.75; in assay [12] (setting [24]), “below the threshold”. For the same molecule, the pKd entry is “below the threshold” in assay [13] (setting [24]); “below the threshold” in assay [14] (setting [24]); “below the threshold” in [15] (setting [24]); “below the threshold” in assay [16] (setting [24]); 3.65 in assay [17] (setting [24]); “below the threshold” in [18] (setting [24]). The pKd entry in [19] (setting [24]), in assay [20] (setting [24]), in assay [21] (setting [24]) and in assay [22] (setting [24]) was “below the threshold” each time.
Turning to TQKFRASTAL [FRMPD1, Q5SYB0], the pKd result was “below the threshold” in assay [1] (setting [25]); “below the threshold” in assay [2] (setting [25]); “below the threshold” in assay [3] (setting [25]); 4.18 in assay [4] (setting [25]); 4.17 in assay [5] (setting [25]); “below the threshold” in assay [6] (setting [25]). In addition, the pKd entry is “below the threshold” in [7] (setting [25]); “below the threshold” in assay [8] (setting [25]); 4.17 in [9] (setting [25]); 3.52 in assay [10] (setting [25]); “below the threshold” in [11] (setting [25]); “below the threshold” in assay [12] (setting [25]). Besides, the pKd entry in assay [13] (setting [25]) is “below the threshold”; in assay [14] (setting [25]), “below the threshold”; in assay [15] (setting [25]), “below the threshold”; in assay [16] (setting [25]), “below the threshold”; in assay [17] (setting [25]), 4.62; in assay [18] (setting [25]), “below the threshold”. Also, the pKd entry is “below the threshold” in assay [19] (setting [25]), 3.62 in assay [20] (setting [25]), “below the threshold” in [21] (setting [25]) and “below the threshold” in assay [22] (setting [25]).

The values are drawn from PMC9482650, “Quantitative fragmentomics allow affinity mapping of interactomes” (Nature Communications, 2022).
